Source: CN114395037A (SHENZHEN PEOPLE HOSPITAL, dated 2022)

Target: T1, CRT N+P结构域 (CALR N+P) (UniProt P27797 18-308)
T1 construct: range 18-308; The ELISA and SPR sections say only 'CRT蛋白' or '纯化抗原蛋白'; also called CRT蛋白; 钙网蛋白; not shown: His tag (Ni purification, anti-His WB)
T1 sequence (looked up): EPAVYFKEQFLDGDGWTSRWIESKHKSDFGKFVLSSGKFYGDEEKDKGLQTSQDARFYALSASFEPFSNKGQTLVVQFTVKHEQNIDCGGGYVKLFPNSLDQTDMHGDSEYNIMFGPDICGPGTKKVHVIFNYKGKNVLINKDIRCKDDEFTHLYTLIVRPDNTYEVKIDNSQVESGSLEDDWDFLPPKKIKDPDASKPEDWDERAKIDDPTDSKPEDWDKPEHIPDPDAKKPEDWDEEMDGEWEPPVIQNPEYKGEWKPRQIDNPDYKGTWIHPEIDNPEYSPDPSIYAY
Assay: SPR (Biacore), antigen protein immobilised on the chip, nanobody as analyte

B1: 204纳米抗体 (VHH)
VHH: AVQLVESGGGLVQAGGSLRLSCVASGRPFSLYAVGWFRQAPGKAREFVAAISRSGSTTDHADSVKGRFTVSRDNDANTVSLLMSNLKPEDTAIYYCAAARSTRGYDYWGQGTQVTVSS
notes: Alpaca-derived nanobody from a naive phage display library, expressed in E. coli with an HA tag; not shown: fused HA tag (and a tag for Ni purification, vector PET-14B)
With B1 the Kd was 0.53 nM.
